Data taken from publication PMC9213739, “Substrates and Loaded Iron Ions Relative Position Influence the Catalytic Characteristics of the Metalloenzymes Angelica archangelica Flavone Synthase I and Camellia sinensis Flavonol Synthase” (Frontiers in Pharmacology, 2022).

System: T1, COc1ccc([C@@H]2CC(=O)c3c(O)cc(O)cc3O2)cc1O
T1 construct: synthetic gene in pET-28a(+) (NcoI/XhoI), expressed in E. coli BL21(DE3); 365 residues
Assay: UPLC-MS product formation, Lineweaver-Burk
Type: biochemical, Angelica archangelica
Conditions: diosmetin formation (main product), Tris-HCl pH 7.5, 23 °C, 1 h, 5 mM 2-mercaptoethanol, 1 mM NADPH, 'separated protein', purification not described
Source text: UPLC-MS product formation, Lineweaver-Burk on […]

AnFNS I (Angelica archangelica), sequence (chain, as listed by the source): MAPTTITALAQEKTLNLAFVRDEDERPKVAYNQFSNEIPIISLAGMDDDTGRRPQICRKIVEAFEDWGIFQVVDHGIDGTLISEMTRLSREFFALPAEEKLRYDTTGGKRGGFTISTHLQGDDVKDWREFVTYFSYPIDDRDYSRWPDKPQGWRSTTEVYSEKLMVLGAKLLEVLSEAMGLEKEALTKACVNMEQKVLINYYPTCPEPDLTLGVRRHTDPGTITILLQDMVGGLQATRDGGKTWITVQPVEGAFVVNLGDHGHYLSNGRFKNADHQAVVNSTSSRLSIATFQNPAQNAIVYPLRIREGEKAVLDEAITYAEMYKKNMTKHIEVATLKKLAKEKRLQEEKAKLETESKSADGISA

Substance: AnFNS I (Angelica archangelica)
- Km: 59.04 µM
- Vmax: 0.0366 µmol/min/mg
- kcat: 0.0249 s⁻¹
- kcat/Km: 423 M⁻¹ s⁻¹
